Where “and” joins values, the source holds several entries; their conditions need not be identical. Equal values may be shown once.
Tests used:
[1] = target: T1, human claudin 6 (CLDN6) (human, UniProt P56747 1-220); assay: FACS, HEK293T/human CLDN6 cells
T1 construct: also called human CLDN6; hCLDN6
T1 sequence: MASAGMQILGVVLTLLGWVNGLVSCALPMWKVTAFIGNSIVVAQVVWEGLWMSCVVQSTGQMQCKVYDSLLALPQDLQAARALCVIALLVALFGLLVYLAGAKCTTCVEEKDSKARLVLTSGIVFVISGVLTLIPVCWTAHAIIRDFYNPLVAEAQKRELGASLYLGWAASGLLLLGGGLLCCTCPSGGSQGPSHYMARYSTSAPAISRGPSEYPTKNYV
Description: (§1) For affinity determination, CLDN6 over-expressing HEK293T cells and cancer cell line PA-1 which express high levels of human CLDN6 were used to evaluate the binding activity of BG87P related engineering variants. Live cells were seeded in 96-well plate, and were incubated with a series of dilutions of chBG87P and engineered variants thereof. Goat anti-human IgG was used as second antibody to detect antibody binding to the cell surface. EC50 values for dose-dependent binding to CLDN6 expressing cell lines were determined by fitting the dose-response data to the four-parameter logistic model with GraphPad Prism. Cell binding activity of 1st round of BG87P humanization variants against HEK293T/human CLDN6 were compared to chBG87P and shown in FIG. 1A.
Beginning with the chBG87P antibody and BG87P-Bz0, several additional amino acid changes in the CDR regions of both VH and VL were made to further improve the biophysical properties for therapeutics use in human. The considerations included removing post translational modifications (PTM), improved heat stability (Tm), while maintaining binding activities, the resulted variants are BG87P-m1 (VH SEQ ID NO: 31 and VL SEQ ID NO: 8), BG87P-m2 (VH SEQ ID NO: 32 and VL SEQ ID NO: 8), BG87P-m3 (VH SEQ ID NO: 33 and VL SEQ ID NO: 8), and BG87P-m4 (VH SEQ ID NO: 34 and VL SEQ ID NO: 8) and BG87P-m5 (VH SEQ ID NO: 35 and VL SEQ ID NO: 14), BG87P-m6 (VH SEQ ID NO: 36 and VL SEQ ID NO 14), BG87P-m7 (VH SEQ ID NO: 37 and VL SEQ ID NO: 14), and BG87P-m8 (VH SEQ ID NO: 38 and VL SEQ ID NO: 14). Cell binding activity of chBG87P and BG87P-Bz0 related PTM removal variants against HEK293T/human CLDN6 was compared with chBG87P and BG87-Bz0, respectively ([…]). Cell binding affinity (EC50) and Emax (MFI) was normalized to chBG87P for directly comparison and ranking (Table 7).

[2] = target: T1, human claudin 6 (CLDN6); assay: FACS, PA-1 cells (endogenous CLDN6)
Description: as §1

[3] = target: T1, human claudin 6 (CLDN6); assay: FACS, HEK293-hCLDN6 cells
[4] = target: T1, human claudin 6 (CLDN6); assay: FACS, HEK293T-hCLDN6 cells

| Binder | EC50 [1] [nM] | Emax ratio to BG87P [1] [ratio] | Top MFI Mean [1] [MFI] | EC50 [2] | Emax ratio to BG87P [2] [ratio] | FACS-Ec50 ratio to BG87P [3] [ratio] | FACS Emax ratio to BG87P [4] [ratio] | Top MFI Mean [2] [MFI] |
| --- | --- | --- | --- | --- | --- | --- | --- | --- |
| BG87P-m3 (antibody, V domains shown, PTM removal variant of chBG87P (VH V65G); constant regions not restated (parent: human IgG1/kappa)) VH: QIQLQQSGPELVKPGASVKISCKASGYSFTDYHINWVKQRPGQGLEWIGWIYPGSGYTKYNEKFKGKATLTVDTSSSTAYMHLTSLTSEDSAVYFCARSGIYHYVSSYYFDHWGQGTTLTVSS VL: DIVMTQSHTFMSTSVGDRVSITCKASQDVGTAVAWYQQKPGQSPKLLIYWASTRHTGVPDRFTGSGSGTDFTLTISNVQSEDLADYFCQQYSSYTFGGGTKLEIK | 2.32 | 1.18 | 227000 | – | – | – | – | – |
| BG87P-m4 (antibody, V domains shown, Variant of chBG87P with H33A; constant regions not restated (parent: human IgG1/kappa)) VH: QIQLQQSGPELVKPGASVKISCKASGYSFTDYAINWVKQRPGQGLEWIGWIYPGSGYTKYNEKFKVKATLTVDTSSSTAYMHLTSLTSEDSAVYFCARSGIYHYVSSYYFDHWGQGTTLTVSS VL: DIVMTQSHTFMSTSVGDRVSITCKASQDVGTAVAWYQQKPGQSPKLLIYWASTRHTGVPDRFTGSGSGTDFTLTISNVQSEDLADYFCQQYSSYTFGGGTKLEIK | 11.8 | 0.74 | 143000 | – | – | – | – | – |
| BG87P-22 (antibody, V domains shown) VH: QVQLVQSGAEVKKPGASVKVSCKASGYSFTDYHINWVRQAPGQRLEWMGWIYPGSGYTKYNEKFKGRVTITRDTSASTAYMELSSLRSEDTAVYFCARSGIYHYVSSYYFDHWGKGTTVTVSS VL: DIQMTQSPSTLSASVGDRVTITCKASQDVGTAVAWYQQKPGKAPKLLIYWASTRHTGVPSRFSGSGSGTEFTLTISSLQPDDFATYYCQQYSSYTFGGGTKVEIK | 2.12 | 0.71 | 137000 | 3.01 nM and 3 nM | 0.54 | – | – | – |
| BG87P-32 (antibody, V domains shown, Solubility engineering variant of BG87P-21) VH: QVQLQQSGAETKKPGASVKVSCKASGYSFTDYHINWVRQASGQRLEWMGYIYPGSGHTKKNEKFKGRVTITRDTSASTAYMELSSLRSEDTAVYYCARSGIYHYVSSYYFDHWGKGTTVTVSS VL: DIQMTQSPSTLSASVGDRVTITCKASQDAGSAVAWYQQKPGKAPKLLIYWASTRHTGVPSRFSGSGSGTEFTLTISSLQPDDFATYYCQQYSSYTFGGGTKVEIK | – | – | – | – | – | 1.31 | 0.63 | – |
| BG87P-31 (antibody, V domains shown, Solubility engineering variant of BG87P-21) VH: QVQLQQSGAETKKPGASVKVSCKASGYSFTDYHINWVRQASGQRLEWMGYIYPGSGHTKKNEKFKGRVTITRDTSASTAYMELSSLRSEDTAVYYCARSGIYHYVSSYYFDHWGKGTTVTVSS VL: DIQMTQSPSTLSASVGDRVTITCKASQDAGSAVAWYQQKPGKAPKLLIKWASTRHTGVPSRFSGSGSGTEFTLTISSLQPDDFATYYCQQYSSYTFGGGTKVEIK | – | – | – | – | – | 1.6 | 0.76 | – |
| BG87P-z0 (antibody, V domains shown) VH: QVQLVQSGAEVKKPGASVKVSCKASGYTFTDYHINWVRQAPGQRLEWMGWIYPGSGYTKYNEKFKVRVTITRDTSASTAYMELSSLRSEDTAVYYCARSGIYHYVSSYYFDHWGKGTTVTVSS VL: DIQMTQSPSTLSASVGDRVTITCKASQDVGTAVAWYQQKPGKAPKLLIYWASTRHTGVPSRFSGSGSGTEFTLTISSLQPDDFATYYCQQYSSYTFGGGTKVEIK | 2.45 | 0.5 | 95600 | 3.25 nM | 0.43 | – | – | 53200 |
| BG87P-23 (antibody, V domains shown) VH: QIQLVQSGAEVKKPGASVKVSCKASGYSFTDYHINWVRQAPGQRLEWMGWIYPGSGYTKYNEKFKGRVTITRDTSASTAYMELSSLRSEDTAVYYCARSGIYHYVSSYYFDHWGKGTTVTVSS VL: DIQMTQSPSTLSASVGDRVTITCKASQDVGTAVAWYQQKPGKAPKLLIYWASTRHTGVPSRFSGSGSGTEFTLTISSLQPDDFATYYCQQYSSYTFGGGTKVEIK | 2.43 | 0.77 | 148000 | 2.49 nM | 0.58 | – | – | 72500 |
| BG87P-26 (antibody, V domains shown) VH: QIQLVQSGAEVKKPGASVKVSCKASGYSFTDYHINWVRQAPGQRLEWMGWIYPGSGYTKYNEKFKGRVTITRDTSASTAYMELSSLRSEDTAVYFCARSGIYHYVSSYYFDHWGKGTTVTVSS VL: DIQMTQSPSTLSASVGDRVTITCKASQDVGTAVAWYQQKPGKAPKLLIYWASTRHTGVPSRFSGSGSGTEFTLTISSLQPDDFATYYCQQYSSYTFGGGTKVEIK | 2.3 | 0.77 | 148000 | 2.3 nM and 2.52 nM | 0.54 | – | – | 68000 |
| BG87P-25 (antibody, V domains shown) VH: QIQLVQSGAEVKKPGASVKVSCKASGYSFTDYHINWVRQAPGQRLEWMGWIYPGSGYTKYNEKFKGRVTLTRDTSASTAYMELSSLRSEDTAVYYCARSGIYHYVSSYYFDHWGKGTTVTVSS VL: DIQMTQSPSTLSASVGDRVTITCKASQDVGTAVAWYQQKPGKAPKLLIYWASTRHTGVPSRFSGSGSGTEFTLTISSLQPDDFATYYCQQYSSYTFGGGTKVEIK | 2.33 | 0.74 | 143000 | 2.34 nM | 0.59 | – | – | 73700 |
| BG87P-27 (antibody, V domains shown) VH: QVQLVQSGAEVKKPGASVKVSCKASGYSFTDYHINWVRQAPGQRLEWMGWIYPGSGYTKYNEKFKGRVTLTRDTSASTAYMELSSLRSEDTAVYFCARSGIYHYVSSYYFDHWGKGTTVTVSS VL: DIQMTQSPSTLSASVGDRVTITCKASQDVGTAVAWYQQKPGKAPKLLIYWASTRHTGVPSRFSGSGSGTEFTLTISSLQPDDFATYYCQQYSSYTFGGGTKVEIK | 2 | 0.68 | 131000 | 1.68 nM | 0.53 | – | – | 66700 |
| BG87P-24 (antibody, V domains shown) VH: QVQLVQSGAEVKKPGASVKVSCKASGYSFTDYHINWVRQAPGQRLEWMGWIYPGSGYTKYNEKFKGRVTLTRDTSASTAYMELSSLRSEDTAVYYCARSGIYHYVSSYYFDHWGKGTTVTVSS VL: DIQMTQSPSTLSASVGDRVTITCKASQDVGTAVAWYQQKPGKAPKLLIYWASTRHTGVPSRFSGSGSGTEFTLTISSLQPDDFATYYCQQYSSYTFGGGTKVEIK | 2.16 | 0.73 | 141000 | 2.27 nM | 0.5 | – | – | 62400 |
